Measurements from patent US20090175880A1 (published 2009).

B1: 2D3-1F5-2A9 (antibody, part only; not given: light chain, V domains shown, part only)
VH: EVQLVQSGGGLVHPGGSLRLSCAGSGFTFSNYAMHWVRQAPGKGLEWVSTIGTGGGTPYADSVKGRFTISRDNAKNSLYLQMNSLRAEDMAVYYCALSAFDVWGQGTMVTVSSASTKGPSVFPLA
B2: 3C7-3A3 (antibody, V domains shown)
VH: QVQLVESGGGVVQPGRSLRLSCAASGFTFSSYNMHWVRQAPGKGLEWVAFIWYDGSNKYYGDSVKGRFTISRDNSKNTLYLQMNSLRAEDTAVYYCAREELGIGWYFDLWGRGTLVTVSS
VL: EIVLTQSPATLSLSPGERATLSCRASQSVSSYLAWYQQKPGQAPRLLIYDASNRATGIPARFSGSGSGTDFTLTISSLEPEDFAVYYCQQRRTFGQGTKVEIK
notes: Human IgG (kappa) from a hybridoma, protein A purified; also called mAb #3; HuMab 3C7-3A3
B3: 3D6-2F4 (antibody, V domains shown)
VH: QVQLVESGGGVVQPGRSLRLSCAASGFIFSIYGMHWVRQAPGKGLEWVAVIWYDGSNKYYADSVKGRFTISRDNSKNTLYLQMNSLRAEDTAVYYCARAPHFDYWGQGTLVTVSS
VL: DIQMTQSPSSLSASVGDRVTITCRASQGISSWLAWYQQKPEKAPKSLIYAASSLQSGVPSRFSGSGSGTDFTLTISSLQPEDFATYYCQQYNSYPYTFGQGTKLEIK
notes: Human IgG (kappa) from a hybridoma, protein A purified; also called mAb #5; HuMab 3D6-2F4
B4: 3D6-4C8 (antibody, V domains shown)
VH: QVQLVESGGGVVQPGRSLRLSCAASGFIFSIYGMHWVRQAPGKGLEWVAVIWYDGSNKYYADSVKGRFTISRDNSKNTLYLQMNSLRAEDTAVYYCARAPHFDYWGQGTLVTVSS
VL: AIQLTQSPSSLSASVGDRVTITCRASQGISSALAWYQQKPGKAPKLLIYDASSLESGVPSRFSGSGSGTDFTLTISSLQPEDFATYYCQQFNSYPLTFGGGTKVEIK
notes: Human IgG (kappa) from a hybridoma, protein A purified; also called HuMab 3D6-4C8
B5: 3G9-2D2 (antibody, V domains shown)
VH: QVQLVESGGGVVQPGRSLRLSCAASGFTFSNYGMYWVRQAPGKGLEWVAVIWYDGSNKYYADSVKGRFTISRDNSKNTLYLQMNSLRAEDTAVYYCARDLWGWYFDYWGQGTLVTVSS
VL: EIVLTQSPATLSLSPGERATLSCRASQSVSSYLAWYQQKPGQAPRLLIYDASNRATGIPARFSGSGSGTDFTLTISSLEPEDFAVYYCQQRRNWPLTFGGGTKVEIK
notes: Human IgG (kappa) from a hybridoma, protein A purified; also called mAb #8; HuMab 3G9-2D2
B6: 5A8-1F1 (antibody, V domains shown)
VH: QVQLVESGGGVVQPGRSLRLSCAASGFTFSTYGMHWVRQAPGKGLEWVAIIWYDGGNKYYADSVKGRFTISRDNSKNTLYLQMNSLRAEDTAVYYCARDFYWYFDLWGRGTLVTVSS
VL: EIVLTQSPATLSLSPGERATLSCRASQSVSSYLAWYQQKPGQAPRLLIYDASNRATGIPARFSGSGSGTDFTLTISSLEPEDFAVYYCQQRRTFGQGTKVEIK
notes: Human IgG (kappa) from a hybridoma, protein A purified; also called mAb #2; HuMab 5A8-1F1

How the values were obtained:
[1] = biological target: soluble fusion protein comprising a DEC-205 extracellular domain (comprising all ten lectin-binding domains) fused with an antibody Fc domain (human) (UniProt O60449); experiment: SPR (Biacore 2000), DEC-205 fusion protein amine-coupled to CM5 chip, antibody flowed at 1.25-200 nM, 1:1 Langmuir fit, mean of two series
Chain of soluble fusion protein comprising a DEC-205 extracellular domain (comprising all ten lectin-binding domains) fused with an antibody Fc domain (human) (O60449 28-1666 K1321N/Y1391H): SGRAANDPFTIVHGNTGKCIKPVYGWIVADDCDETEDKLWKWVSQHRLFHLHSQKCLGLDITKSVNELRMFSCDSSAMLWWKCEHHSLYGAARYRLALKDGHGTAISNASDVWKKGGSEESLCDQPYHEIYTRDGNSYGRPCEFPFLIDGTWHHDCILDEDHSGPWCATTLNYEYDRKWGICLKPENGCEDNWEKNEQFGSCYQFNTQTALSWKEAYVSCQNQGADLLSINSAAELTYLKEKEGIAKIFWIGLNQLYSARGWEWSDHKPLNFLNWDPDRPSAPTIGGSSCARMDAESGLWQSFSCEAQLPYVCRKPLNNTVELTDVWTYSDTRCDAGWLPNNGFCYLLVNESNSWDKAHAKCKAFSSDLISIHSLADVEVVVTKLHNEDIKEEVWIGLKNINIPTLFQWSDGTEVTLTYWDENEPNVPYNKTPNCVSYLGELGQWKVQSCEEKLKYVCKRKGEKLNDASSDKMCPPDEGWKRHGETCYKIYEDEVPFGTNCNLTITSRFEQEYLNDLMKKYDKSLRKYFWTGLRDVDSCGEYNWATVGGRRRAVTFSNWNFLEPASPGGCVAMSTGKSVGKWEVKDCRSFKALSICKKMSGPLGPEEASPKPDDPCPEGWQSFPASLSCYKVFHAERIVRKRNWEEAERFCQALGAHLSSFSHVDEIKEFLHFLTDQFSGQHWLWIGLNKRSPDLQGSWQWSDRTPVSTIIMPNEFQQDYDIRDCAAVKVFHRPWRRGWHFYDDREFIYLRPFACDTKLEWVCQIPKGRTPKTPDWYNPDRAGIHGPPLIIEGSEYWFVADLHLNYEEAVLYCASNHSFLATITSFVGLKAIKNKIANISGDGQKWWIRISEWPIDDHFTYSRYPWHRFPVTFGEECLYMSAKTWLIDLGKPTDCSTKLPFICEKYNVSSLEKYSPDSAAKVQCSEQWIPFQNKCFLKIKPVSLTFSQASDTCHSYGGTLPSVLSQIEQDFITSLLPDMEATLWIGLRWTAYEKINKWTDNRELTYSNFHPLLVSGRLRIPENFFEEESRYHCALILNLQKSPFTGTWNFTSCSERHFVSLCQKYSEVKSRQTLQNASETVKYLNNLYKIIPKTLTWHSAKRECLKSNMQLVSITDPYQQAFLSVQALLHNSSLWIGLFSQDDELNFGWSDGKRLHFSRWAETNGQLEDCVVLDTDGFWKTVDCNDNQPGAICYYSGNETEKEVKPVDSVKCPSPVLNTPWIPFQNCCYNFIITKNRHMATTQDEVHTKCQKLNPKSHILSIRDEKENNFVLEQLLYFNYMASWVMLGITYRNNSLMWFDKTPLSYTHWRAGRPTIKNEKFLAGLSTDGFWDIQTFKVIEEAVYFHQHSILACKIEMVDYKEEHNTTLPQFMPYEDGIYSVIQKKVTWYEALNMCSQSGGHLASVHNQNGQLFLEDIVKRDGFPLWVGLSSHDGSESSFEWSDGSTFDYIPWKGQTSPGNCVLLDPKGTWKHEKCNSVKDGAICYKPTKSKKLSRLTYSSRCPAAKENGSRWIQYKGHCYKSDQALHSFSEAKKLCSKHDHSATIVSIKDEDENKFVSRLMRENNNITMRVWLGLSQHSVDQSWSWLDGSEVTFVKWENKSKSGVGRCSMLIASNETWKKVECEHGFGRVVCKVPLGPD

[2] = biological target: T1, soluble fusion protein comprising a DEC-205 extracellular domain (comprising all ten lectin-binding domains) … (human, UniProt O60449 28-1666); experiment: as above
T1 construct: not shown: antibody Fc domain
T1 sequence (O60449 28-1666 K1321N/Y1391H): as above
From the text: Low levels of ligand were immobilised to limit any effects of mass transport of analyte on kinetic parameters, such that the RMAX observed was in the order of 200 RU.
The antigen-antibody association and dissociation kinetics were followed for approximately 300 to 600 seconds in each case.
Biacore's kinetics wizard was used in each case to derive kinetic parameters from the concentration series of analyte diluted in HBS-NP running buffer. The association and dissociation curves were fitted to a 1:1 Langmuir binding model using Biacore™ kinetics wizard software (Biacore AB) according to the manufacturer's guidelines. For each antibody, the figures shown are the mean of two separate series of experiments, using separately prepared sensor chips in each case, (where ka=rate constant of association, kd=rate constant of dissociation, KD=dissociation equilibrium constant (measure of affinity), KA=association equilibrium constant, Rmax=maximum SPR response signal).

[3] = biological target: human DEC-205 expressed on the cell surface (human, UniProt O60449 28-1722); experiment: flow cytometry on CHO-S cells expressing human DEC-205, saturating antibody, PE anti-human IgG Fc
Chain of human DEC-205 expressed on the cell surface (O60449 28-1722 K1321N/Y1391H limits assumed): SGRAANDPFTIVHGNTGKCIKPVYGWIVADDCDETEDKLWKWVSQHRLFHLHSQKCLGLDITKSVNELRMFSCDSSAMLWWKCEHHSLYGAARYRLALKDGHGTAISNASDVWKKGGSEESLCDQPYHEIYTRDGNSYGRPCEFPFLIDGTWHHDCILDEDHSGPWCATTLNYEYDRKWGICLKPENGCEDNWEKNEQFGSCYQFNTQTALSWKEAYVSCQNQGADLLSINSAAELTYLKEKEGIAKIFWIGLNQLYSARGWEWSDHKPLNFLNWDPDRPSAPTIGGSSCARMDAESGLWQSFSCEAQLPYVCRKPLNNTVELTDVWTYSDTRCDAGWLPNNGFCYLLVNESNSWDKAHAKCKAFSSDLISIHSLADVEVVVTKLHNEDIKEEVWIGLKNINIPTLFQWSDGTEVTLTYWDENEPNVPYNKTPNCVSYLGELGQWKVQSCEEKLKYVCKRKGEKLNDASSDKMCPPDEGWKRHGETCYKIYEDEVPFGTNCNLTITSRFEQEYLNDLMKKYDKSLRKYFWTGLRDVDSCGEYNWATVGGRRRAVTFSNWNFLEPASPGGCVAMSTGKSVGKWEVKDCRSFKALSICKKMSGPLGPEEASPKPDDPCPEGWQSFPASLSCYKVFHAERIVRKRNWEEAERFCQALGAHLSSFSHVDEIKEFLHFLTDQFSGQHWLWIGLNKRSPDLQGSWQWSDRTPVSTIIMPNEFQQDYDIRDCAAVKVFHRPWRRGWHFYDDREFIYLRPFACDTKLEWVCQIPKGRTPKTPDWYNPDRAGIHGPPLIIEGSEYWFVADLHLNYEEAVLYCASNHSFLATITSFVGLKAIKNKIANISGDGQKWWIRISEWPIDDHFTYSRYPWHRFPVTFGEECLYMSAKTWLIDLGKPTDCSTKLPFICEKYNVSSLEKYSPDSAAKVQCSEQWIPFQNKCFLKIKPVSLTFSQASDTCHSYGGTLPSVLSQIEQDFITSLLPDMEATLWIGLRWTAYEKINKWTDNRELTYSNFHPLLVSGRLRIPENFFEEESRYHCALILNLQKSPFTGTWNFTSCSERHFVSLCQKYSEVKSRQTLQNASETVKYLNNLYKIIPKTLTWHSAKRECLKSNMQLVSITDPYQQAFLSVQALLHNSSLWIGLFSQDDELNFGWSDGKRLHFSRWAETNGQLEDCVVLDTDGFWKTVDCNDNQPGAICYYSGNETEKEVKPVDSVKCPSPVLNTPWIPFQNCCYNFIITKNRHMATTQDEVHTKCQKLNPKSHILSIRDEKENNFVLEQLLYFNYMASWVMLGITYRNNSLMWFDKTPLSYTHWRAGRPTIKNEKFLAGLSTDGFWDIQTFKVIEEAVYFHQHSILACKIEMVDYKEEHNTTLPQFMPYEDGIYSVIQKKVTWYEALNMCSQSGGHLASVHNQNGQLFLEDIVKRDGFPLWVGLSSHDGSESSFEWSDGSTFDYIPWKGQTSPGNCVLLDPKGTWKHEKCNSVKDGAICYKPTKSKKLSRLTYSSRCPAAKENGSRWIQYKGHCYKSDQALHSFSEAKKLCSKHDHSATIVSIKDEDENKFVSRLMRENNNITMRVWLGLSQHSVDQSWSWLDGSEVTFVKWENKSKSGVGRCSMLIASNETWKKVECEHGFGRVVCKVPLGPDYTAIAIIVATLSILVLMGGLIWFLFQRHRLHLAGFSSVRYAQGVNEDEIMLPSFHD

[4] = biological target: T1, soluble fusion protein comprising a …; experiment: ELISA, plates coated with soluble DEC-205/Fc fusion protein, saturating antibody, AP anti-human IgG Fc, OD 405-650

Binder	Ka [1] [M⁻¹]	Kd [1] [nM]	koff [1] [s⁻¹]	kon [1] [M⁻¹ s⁻¹]	Ka [2] [M⁻¹]	Kd [2] [nM]	koff [2] [s⁻¹]	kon [2] [M⁻¹ s⁻¹]	binding result [3]	binding result [4]
B1	1.5e+10	0.068	2.2e-05	330000						
B2					5.2e+08	5.6	0.00076	170000		
B3					1.5e+10	0.08	0.00012	1.8e+06		
B4									binds	binds
B5					4.7e+09	0.24	0.00019	900000		
B6					2.1e+09	1.5	0.0002	360000		
